Laboratory results published in patent US11278600B2, “Human alpha-galactosidase variants” (Codexis, Inc., priority 2014, dated 2022).

Columns and labels:
Type in all cases: biochemical
[1] = HTP-analysis of yeast culture supernatants, no challenge (MUGal hydrolysis); conditions: activity of the variant/activity of WT GLA (SEQ ID NO: 5), yeast supernatant
Method: (§1) Yeast (INVSc1) cells transformed with vectors expressing GLA and GLA variants using the lithium acetate method were selected on SD-Ura agar plates. After 72 h incubation at 30° C. colonies were placed into the wells of Axygen® 1.1 ml 96-well deep well plates filled with 200 μl/well SD-Ura broth (2 g/L SD-Ura, 6.8 g/L yeast nitrogen base without amino acids [Sigma Aldrich]), 3.06 g/L sodium dihydrogen phosphate, 0.804 g/L disodium hydrogen phosphate, pH 6.0 supplemented with 6% glucose. The cells were allowed to grow for 20-24 hours in a Kuhner shaker (250 rpm, 30° C., and 85% relative humidity). Overnight culture samples (20 μL) were transferred into Corning Costar® 96-well deep plates filled with 380 µL of SD-ura broth supplemented with 2% glucose. The plates were incubated for 66-84 h in a Kuhner shaker (250 rpm, 30° C., and 85% relative humidity). The cells were then pelleted (4000 rpm×20 min), and the supernatants isolated and stored at 4° C. prior to analysis.
GLA variant activity was determined by measuring the hydrolysis of 4-methylumbelliferyl α-D-galactopyranoside (MUGal). For this assay, 5-50 μL, of yeast culture supernatant produced as described above, was mixed with 0-45 μL, of McIlvaine Buffer (McIlvaine, J. Biol. Chem., 49:183-186 [1921]), pH 4.8 and 50 μL of 2 mM MUGal in 50 mM citrate, 200 mM KCl, pH 4.6 in a 96-well, black, opaque bottom plate. The reactions were mixed briefly and incubated at 37° C. for 30-180 minutes, prior to quenching with 100 μL, of 1 M sodium carbonate. Hydrolysis was analyzed using a SpectraMax® M2 microplate reader monitoring fluorescence (Ex. 355 nm, Em. 448 nm).

[2] = HTP-analysis of supernatants pretreated with acid (MUGal hydrolysis); conditions: challenge at pH 4.3; activity of the variant/activity of WT GLA (SEQ ID NO: 5); yeast supernatant
Method: as §1
GLA variants were challenged with acidic buffer to simulate the extreme pHs that the variants may encounter in lysosomes. First, 50 μL of yeast culture supernatant and 50 uL of McIlvaine buffer (pH 3.3-4.3) were added to the wells of a 96-well round bottom plate. The plates were sealed with a PlateLoc Thermal Microplate Sealer (Agilent) and incubated at 37° C. for 1-3 h. For the assay, 10-50 uL of acid-pH-challenged sample was mixed with 0-40 μL, of McIlvaine buffer pH 4.8, 25 μL, of 1 M citrate buffer pH 4.3 and 25 μL, of 4 mM MUGal in McIlvaine buffer pH 4.8. The reactions were mixed briefly and incubated at 37° C. for 30-180 minutes, prior to quenching with 100 μL, of 1 M sodium carbonate. Hydrolysis was analyzed using a SpectraMax® M2 microplate reader monitoring fluorescence (Ex. 355 nm, Em. 448 nm).

[3] = HTP-analysis of supernatants pretreated with base (MUGal hydrolysis); conditions: challenge at pH 7.0; activity of the variant/activity of WT GLA (SEQ ID NO: 5); yeast supernatant
Method: as §1
GLA variants were challenged with basic (neutral) buffer to simulate the pHs that the variants encounter in the blood following their administration to a patient. First, 50 μL of yeast culture supernatant and 50 uL of McIlvaine buffer (pH 7.0-8.2) or 200 mM sodium bicarbonate (pH 9.1-9.7) were added to the wells of a 96-well round bottom plate. The plates were sealed and incubated at 37° C. for 1-18 h. For the assay, 10-50 μL of basic-pH-challenged sample was mixed with 0-40 μL, of McIlvaine buffer pH 4.8, 25 μL, of 1 M citrate buffer pH 4.3 and 25 μL, of 4 mM MUGal in McIlvaine buffer pH 4.8. The reactions were mixed briefly and incubated at 37° C. for 30-180 minutes, prior to quenching with 100 μL, of 1 M sodium carbonate. Hydrolysis was analyzed using a SpectraMax® M2 microplate reader monitoring fluorescence (Ex. 355 nm, Em. 448 nm).

Row | Molecule | Relative Activity of GLA Variants After No Challenge (NC) [1] | Relative Activity of GLA Variants After Challenge at pH 4.3 [2] | Relative Activity of GLA Variants After Challenge at pH 7.0 [3]
1 | 9 (protein, Synthetic Polypeptide sequence of Variant No. 9 of mature Human GLA) LDNGLARTPTMGWLHWERFMCNLDCQEEPDSCISEKLFMEMADLMVSDGWKDAGYEYLCIDDCWMAPQRDSEGRLQADPQRFPHGIRQLANYVHSKGLKLGIYADVGNKTCAGFPGSFGYYDIDAQTFADWGVDLLKFDGCYCDSLENLADGYKHMSLALNRTGRSIVYSCEWPLYMWPFQKPNYTEIRQYCNHWRNFADIDDSWKSIKSILDWTSFNQERIVDVAGPGGWNDPDMLVIGNFGLSWNQQVTQMALWAIMAAPLFMSNDLRHISPQAKALLQDKDVIAINQDPLGKQGYQLRKGDNFEVWERPLSGLAWAVAMINRQEIGGPRSYTIAVASLGKGVACNPACFITQLLPVKRKLGFYEWTSRLKSHVNPTGTVLLQLENTMQMSLKDLL | + (+ = 0.5 to 1.5 relative activity over WT GLA (SEQ ID NO: 5)) | +++ (+++ = >2.5 relative activity over WT GLA (SEQ ID NO: 5)) | + (+ = 0.5 to 1.5 relative activity over WT GLA (SEQ ID NO: 5))
2 | 10 (protein, Synthetic Polypeptide sequence of Variant No. 10 of mature Human GLA) LDNGLARTPTMGWLHWERFMCNLDCQEEPDSCISEKLFMEMADLMVSEGWKDAGYEYLCIDDCWMAPQRDSEGRLQADPQRFPHGIRQLANYVHSKGLKLGIYADVGNKTCAGFPGSFGYYDIDAQTFADWGVDLLKFDGCYCDSLENLADGYKHMSLALNRTGRSIVYSCEWPLYMWPFQKPNYTEIRQYCNHWRNFADIDDSWKSVKSILDWTSFNQERIVDVAGPGGWNDPDMLVIGNFGLSWDQQVTQMALWAIMAAPLFMSNDLRHISPQAKALLQDKDVIAINQDPLGKQGYQLRQGDNFEVWERPLSGLAWAVAMINRQEIGGPRSYTIAVASLGKGVACNPACFITQLLPVKRKLGFYEWTSRLRSHINPTGTVLLQLENTMQMSLKDLL | ++ (++ = >1.5 to 2.5 relative activity over WT GLA (SEQ ID NO: 5)) | +++ (+++ = >2.5 relative activity over WT GLA (SEQ ID NO: 5)) | ++ (++ = >1.5 to 2.5 relative activity over WT GLA (SEQ ID NO: 5))
3 | 14 (protein, Synthetic Polypeptide sequence of Variant No. 14 of mature Human GLA) LDNGLARTPTMGWLHWERFMCNLDCQEEPDSCISEKLFMEMADLMVSEGWKDAGYEYLCIDDCWMAPQRDSEGRLQADPQRFPHGIRQLANYVHSKGLKLGIYADVGNKTCAGFPGSFGYYDIDAQTFADWGVDLLKFDGCYCDSLENLADGYKHMSLALNRTGRSIVYSCEWPLYMWPFQKPNYTEIRQYCNHWRNFADIDDSWKSIKSILDWTSFNQERIVDVAGPGGWNDPDMLVIGNFGLSWNQQVTQMALWAIMAAPLFMSNDLRHISPQAKALLQDKDVIAINQDPLGKQGYQLRQGDNFEVWERPLSGLAWAVAMINRQEIGGPRSYTIAVASLGKGVACNPACFITQLLPVKRKLGFYEWTSRLKSHVNPTGTVLLQLENTMQMSLKDLL | + (+ = 0.5 to 1.5 relative activity over WT GLA (SEQ ID NO: 5)) | +++ (+++ = >2.5 relative activity over WT GLA (SEQ ID NO: 5)) | ++ (++ = >1.5 to 2.5 relative activity over WT GLA (SEQ ID NO: 5))
4 | 12 (protein, Synthetic Polypeptide sequence of Variant No. 12 of mature Human GLA) LDNGLARTPTMGWLHWERFMCNLDCQEEPDSCISEKLFMEMADLMVSEGWKDAGYEYLCIDDCWMAPQRDSEGRLQADPQRFPHGIRQLANYVHSKGLKLGIYADVGNKTCAGFPGSFGYYDIDAQTFADWGVDLLKFDGCYCDSLENLADGYKHMSLALNRTGRSIVYSCEWPLYMWPFQKPNYTEIRQYCNHWRNFADIDDSWKSVKSILDWTSFNQERIVDVAGPGGWNDPDMLVIGNFGLSWNQQVTQMALWAIMAAPLFMSNDLRHISPQAKALLQDKDVIAINQDPLGKQGYRLRQGDNFEVWERPLSGLAWAVAMINRQEIGGPRSYTIAVASLGKGVACNPACFITQLLPVKRKLGFYEWTSRLKSHVNPTGTVLLQLENTMQMSLKDLL | + (+ = 0.5 to 1.5 relative activity over WT GLA (SEQ ID NO: 5)) | ++ (++ = >1.5 to 2.5 relative activity over WT GLA (SEQ ID NO: 5)) | + (+ = 0.5 to 1.5 relative activity over WT GLA (SEQ ID NO: 5))
5 | 13 (protein, Synthetic Polypeptide sequence of Variant No. 13 of mature Human GLA) LDNGLARTPTMGWLHWERFMCNLDCQEEPDSCISEKLFMEMADLMVSEGWKDAGYEYLCIDDCWMAPQRDSEGRLQADPQRFPHGIRQLANYVHSKGLKLGIYADVGNKTCAGFPGSFGYYDIDAQTFADWGVDLLKFDGCYCDSLENLADGYKHMSLALNRTGRSIVYSCEWPLYMWPFQKPNYTEIRQYCNHWRNFADIDDSWKSIKSILDWTSFNQERIVDVAGPGGWNDPDMLVIGNFGLSWDQQVTQMALWAIMAAPLFMSNDLRHISPQAKALLQDKDVIAINQDPLGKQGYQLRQGDNFEVWERPLSGLAWAVAMINRQEIGGPRSYTIAVASLGKGVACNPACFITQLLPVKRKLGFYEWTSRLKSHVNPTGTVLLQLENTMQMSLKDLL | ++ (++ = >1.5 to 2.5 relative activity over WT GLA (SEQ ID NO: 5)) | +++ (+++ = >2.5 relative activity over WT GLA (SEQ ID NO: 5)) | ++ (++ = >1.5 to 2.5 relative activity over WT GLA (SEQ ID NO: 5))
6 | 11 (protein, Synthetic Polypeptide sequence of Variant No. 11 of mature Human GLA) LDNGLARTPTMGWLHWERFMCNLDCQEEPDSCISEKLFMEMADLMVSEGWKDAGYEYLCIDDCWMAPQRDSEGRLQADPQRFPHGIRQLANYVHSKGLKLGIYADVGNKTCAGFPGSFGYYDIDAQTFADWGVDLLKFDGCYCDSLENLADGYKHMSLALNRTGRSIVYSCEWPLYMWPFQKPNYTEIRQYCNHWRNFADIDDSWKSVKSILDWTSFNQERIVDVAGPGGWNDPDMLVIGNFGLSWDQQVTQMALWAIMAAPLFMSNDLRHISPQAKALLQDKDVIAINQDPLGKQGYRLRQGDNFEVWERPLSGLAWAVAMINRQEIGGPRSYTIAVASLGKGVACNPACFITQLLPVKRKLGFYEWTSRLKSHVNPTGTVLLQLENTMQMSLKDLL | + (+ = 0.5 to 1.5 relative activity over WT GLA (SEQ ID NO: 5)) | +++ (+++ = >2.5 relative activity over WT GLA (SEQ ID NO: 5)) | ++ (++ = >1.5 to 2.5 relative activity over WT GLA (SEQ ID NO: 5))
